Common to all, as to type: ADME
Data set [1] has as its system Nc1ccn([C@@H]2O[C@H](CO)[C@@H](O)C2(F)F)c(=O)n1. Put plainly: Activity of human recombinant N-terminal His-SUMO fused CDA Ala70Thr mutant expressed in Escherichia coli BL21(DE3) cells assessed as 2',2'-difluorodeoxyuridine formation by liquid chromatography-tandem mass spectrometry.
For data set [2] the test system is unchanged. As to the kind of experiment: Activity of human recombinant N-terminal His-SUMO fused CDA Lys27Gln mutant expressed in Escherichia coli BL21(DE3) cells assessed as 2',2'-difluorodeoxyuridine formation by liquid chromatography-tandem mass spectrometry.
Data set [3] has the same test system. As to the kind of experiment: Activity of human recombinant N-terminal His-tagged wild type DCK expressed in Escherichia coli BL21(DE3) cells assessed as enzyme-mediated […] incubated for 1 min by liquid chromatography-tandem mass spectrometry.

Km and Vmax data for three substances are collected here from ChEMBL document CHEMBL3525898, “Pharmacogenomics of gemcitabine metabolism: functional analysis of genetic variants in cytidine deaminase and deoxycytidine kinase” (Drug Metab Dispos, 2013).

Deoxycytidine kinase (Homo sapiens), sequence (chain, as listed by the source): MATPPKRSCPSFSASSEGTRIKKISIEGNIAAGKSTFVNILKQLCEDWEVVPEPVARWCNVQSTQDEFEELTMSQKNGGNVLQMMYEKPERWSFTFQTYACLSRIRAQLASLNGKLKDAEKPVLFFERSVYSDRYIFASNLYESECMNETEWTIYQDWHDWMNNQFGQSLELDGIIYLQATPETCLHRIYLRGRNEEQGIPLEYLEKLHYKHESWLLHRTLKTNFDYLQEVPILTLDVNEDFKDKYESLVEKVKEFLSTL

Consider Cytidine deaminase (Homo sapiens; A70T), for which, in data set [1], the Km came out at 610 µM and the Vmax is 0.151 µmol/min/mg.

With Cytidine deaminase (Homo sapiens; K27Q), in data set [2], the Km is 562 µM and the Vmax came to 0.195 µmol/min/mg.

As to Deoxycytidine kinase (Homo sapiens), in data set [3], the Km was 2.15 µM and the Vmax stood at 1.06 µmol/min/mg.

Broadly, the Km is the concentration of substrate that gives half-maximal velocity. For orientation: Vmax means the top rate of the reaction or transport when substrate is in excess.
